Where two headings read alike, the source gives them in different places.
Assays:
Experiment in all cases: SPR
[1] = target: T1, DEN4-NS1 (NAD4) (Dengue virus 4 Dominica/814669/1981) (UniProt P09866)
T1 sequence: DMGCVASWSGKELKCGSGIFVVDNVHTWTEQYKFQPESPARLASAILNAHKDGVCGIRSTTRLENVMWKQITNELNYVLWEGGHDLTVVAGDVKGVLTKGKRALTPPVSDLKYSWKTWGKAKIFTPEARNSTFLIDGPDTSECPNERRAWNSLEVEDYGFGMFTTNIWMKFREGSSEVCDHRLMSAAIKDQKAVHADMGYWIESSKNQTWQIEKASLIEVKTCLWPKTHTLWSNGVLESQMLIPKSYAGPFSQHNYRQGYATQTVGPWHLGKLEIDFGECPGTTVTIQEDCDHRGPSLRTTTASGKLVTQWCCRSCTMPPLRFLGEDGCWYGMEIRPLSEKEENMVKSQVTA

[2] = target: T2, DEN2-NS1 (NAD2) (Dengue virus 2 Thailand/16681/84) (UniProt P29990); settings: N1,N2 = Ds
T2 sequence: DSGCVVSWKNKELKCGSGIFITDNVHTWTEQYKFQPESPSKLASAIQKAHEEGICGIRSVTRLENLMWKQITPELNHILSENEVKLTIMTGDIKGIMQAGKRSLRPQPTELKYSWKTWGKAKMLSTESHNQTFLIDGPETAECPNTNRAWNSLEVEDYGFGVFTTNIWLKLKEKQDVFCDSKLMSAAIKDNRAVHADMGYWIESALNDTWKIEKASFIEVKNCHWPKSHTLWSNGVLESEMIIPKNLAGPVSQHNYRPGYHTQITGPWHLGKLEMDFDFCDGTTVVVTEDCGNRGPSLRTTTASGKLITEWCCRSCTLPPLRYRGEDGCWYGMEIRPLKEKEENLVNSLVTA

[3] = target: T3, DEN3-NS1 (NAD3) (Dengue virus 3 Sri Lanka D3/H/IMTSSA-SRI/2000/1266) (UniProt Q6YMS4)
T3 sequence: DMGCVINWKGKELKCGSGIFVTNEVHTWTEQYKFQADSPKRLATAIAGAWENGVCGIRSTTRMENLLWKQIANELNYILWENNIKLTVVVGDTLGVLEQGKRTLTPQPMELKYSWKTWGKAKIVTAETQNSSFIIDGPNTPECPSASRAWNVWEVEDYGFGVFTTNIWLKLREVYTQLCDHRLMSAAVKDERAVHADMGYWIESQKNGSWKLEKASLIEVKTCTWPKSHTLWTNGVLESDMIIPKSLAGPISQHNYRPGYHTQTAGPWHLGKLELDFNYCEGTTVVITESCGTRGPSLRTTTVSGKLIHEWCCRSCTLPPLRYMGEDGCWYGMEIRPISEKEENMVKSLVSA

Which Kd ([1]; N = Ds) does the source give for “TGATATGGTCTACTGGAGGAGACGTAACGCNTATCAAATCNAAACAGCTTAGGGTCCGACAAGCGGAGTAGTTAGACC [D4-3-78]” here?
Its Kd is 0.034 nM.

“GGCTGGTCCGNCTGGGAACAAGNGGCGGGAGGGANGGGTGTGGGTGCGACAAGCGGACCAGCCCGCGTAGCG [D2-1d-72h (AptD2)]” was tested. Which Kd ([2]; N3 = diol-Pa) did it give?
Its Kd is 0.104 nM.

“TTTTCGCACTCCATGATATGGTCTACTGGTCCGNCTGGGAACAAGNGGCGGGAGGGANGGGTGTGGGTGCGACAAGCGGAGTAGTTAGACCGTCAAA [D2-1y-96]” was tested. Which Kd ([2]; N3 = diol-Px) did it give?
Its Kd is 0.041 nM.

“TTTTCGCACTCCATGATATGGTCTACTGGTCCGNCTGGGAACAAGNGGCGGGAGGGANGGGTGTGGGTGCGACAAGCGGAGTAGTTAGACCGTCAAA [D2-1d-97]” was tested. Which Kd ([2]; N3 = diol-Pa) did it give?
The Kd was 0.114 nM.

How did the Kd [1] turn out when “CGGCGGAGACGTAACGCATATCAAATCAAAACAGCTTAGGGTCCGCCGCGCGTAGCG [Cont-D4-3-57h]” was run?
The Kd was 2 nM.

Which Kd ([1]; N = Ds) does the source give for “CTCCGCTGTCAAACGGNTATCACGGCNACACACCTGCGGACAGCGGAGCGCGTAGCG [D4-1-57h]” here?
Its Kd is 0.029 nM.

Which Kd ([2]; N3 = diol-Pa) does the source give for “GACGGTCTACTGGTCCGNCTGGGAACAAGNGGCGGGAGGGANGGGTGTGGGTGCGACAAGCGGAGTAGTTAGACCGTCCGCGTAGCG [D2-1d-87h]” here?
The Kd was 0.105 nM.

How did the Kd ([3]; N = Ds) turn out when “TGATATGGTCTACTGAAGTGTTGTCATCTANCCTGGCCNTGTGGTACTGTAACGGCTGACAAGCGGAGTAGTTAGACC [D3-2-78]” was run?
The Kd was 0.041 nM.

“CCGCTTGTCATCTANCCTGGCCNTGTGGTACTGTAACGGCTGACAAGCGGCGCGTAGCG [D3-2-59h (AptD3)]” was tested. Which Kd ([3]; N = Ds) did it give?
Its Kd is 0.057 nM.

Which Kd [3] does the source give for “CCGCTTGTCATCTAACCTGGCCATGTGGTACTGTAACGGCTGACAAGCGGCGCGTAGCG [Cont-D3-2-59h]” here?
The Kd was 190 nM.

How did the Kd ([1]; N = Ds) turn out when “TGATATGGTCTACTGGTCTCAACGGTTGTCAAACGGNTATCACGGCNACACACCTGCGGACAAGCGGAGTAGTTAGACC [D4-1-78]” was run?
Its Kd is 0.042 nM.

How did the Kd ([1]; N = Ds) turn out when “CGGCGGAGACGTAACGCNTATCAAATCNAAACAGCTTAGGGTCCGCCGCGCGTAGCG [D4-3-57h (AptD4)]” was run?
The Kd was 0.03 nM.

From paper PMC8599795
